Eight molecules from patent US20090252681A1 (Ablynx, published 2009) can be followed below.

The koff is the rate constant with which the complex falls apart.

One experiment concerns the target T1, purified EGFR (Sigma) (human, UniProt P00533 25-1210, limits assumed).
T1 construct: native receptor purified from A431 cells; also called solid phase coated EGFR

The target in experiment [1] is T2, EGFR on A431 derived membrane vesicles (human, UniProt P00533 25-1210).
T2 construct: whole, on cells; presented in membrane vesicles coated on ELISA plates, not on intact cells; also called EGFR harboring A431 vesicles; EGFR expressing A431 vesicles

For experiment [2], the target named is T3, cell surface expressed EGFR (human, UniProt P00533 25-1210).
T3 construct: whole, on cells; also called EGFR on A431 tumor cells; EGFR on HER14 cells

A further experiment concerns the target T4, Recombinant human IGF-IR (human, UniProt P08069 31-932).
T4 construct: bought; also called rhIGFIR; rhIGF-IR
Kind of experiment: SPR (BIAcore), immobilized IGF-IR.

B1: PMP7E12 (VHH)
VHH: EVQLVESGGGLVQAGGSLRLSCTASGRTFENNAMAWFRQAAGKEREFVAGFSGSGGATYYAHSVEGRFTISRDNAKNTVDLQMNSLSLEDTAVYLCAARRKSGEVVFTIPARYDYWGQGTQVTVSS
The molecule B1 gave a koff in the experiment with purified EGFR (Sigma) of 0.0015 s⁻¹.

B2: PMP9C1 (VHH)
VHH: EVQLVESGGGLVQAGGSLRLSCAASGRTFSGFAMGWFRQAPGKEREFVAAISWSGGSLLYVDSVKGRFTISRDNAKNTVHLQMNSLKPGDTAVYYCAAMVGPPPRSLDYGLGNHYEYDYWGQGTQVTVSS
As to B2, the binding result in experiment [1] and in experiment [2] was “binds” throughout.

B3: 27-10-E8 (VHH)
VHH: EVQLVESGGGLVQAGGSLRLSCAASGRTFSTYTMAWFRQAPGKEREFVQGISRSDGGTYDADSVKGRFTISRDNAKNTVYLQMNSLKPEDTAVYFCAAASVKLVYVNPNRYSYWGQGTQVTVSS
notes: anti-EGFR Nanobody; tested as periplasmic extract or IMAC purified soluble Nanobody, tag not described; also called EGR 27-10-E8
For the molecule B3, the “IC50 (read off the curve)” value in experiment [1] is about 900 pM. The same molecule came in with an off-rate (koff) with purified EGFR (Sigma) of 0.0017 s⁻¹.

B4: 27-1-H7 (VHH)
VHH: EVQLVESGGGLVQAGGSLRLSCAASGRGAWAWFRQAPGKEREFVGGLSWSADSTYYADSVKGRFTISRDNAKNTVFLQMTNLKADDTAVYYCAAHRRPFASVFTTTRMYDYWGPGTQVTVSS
For B4, the koff in the experiment with purified EGFR (Sigma) is 0.0031 s⁻¹.

B5: PMP8C7 (VHH)
VHH: QVKLEESGGGLVQAGGSLRLSCAASGRAFSSYVMGWFRQAPGKEREIVGAISWRGGSTYYADSVKGRFTISRDNAKNTVYLQMNSLKPEDTAVYYCAAVYRVGAISEYSGTDYYTDEYDYWGQGTQVTVSS
notes: also called EGR PMP8C7
For B5, in experiment [1], the binding result is “binds”.

B6: PMP1C7 (VHH)
VHH: QVKLEESGGGLVQAGGSLRLSCVASGRTFSRTAMAWFRQAPGKEREFVATITWNSGTTRYADSVKGRFFISKDSAKNTIYLEMNSLEPEDTAVYYCAATAAAVITPTRGYYNYWGQGTQVTVSS
notes: anti-IGF-IR Nanobody; tag not described; also called IGR PMP1C7
For B6, the koff with Recombinant human IGF-IR came to 0.0019 s⁻¹.

B7: PMP7A5 (VHH)
VHH: EVQLVESGGGLVQAGGSLRLSCAASDRTFSSNNMGWFRQAPGKEREFVAAIGWGGLETHYSDSVKGRFTISRDNAKNTVYLQMNSLKPEDTARYYCAVSSTRTVIYTLPRMYNYWGQGTQVTVSS
As for B7, the koff with purified EGFR (Sigma) was determined as 0.0015 s⁻¹.

B8: PMP38G7 (VHH)
VHH: EVQLVESGGGLVQAGGSLRLSCAASGRTFSSYVMGWFRQATGKEREFVATIAWDSGSTYYADSVKGRFTISRDNAKNTVHLQMNSLKPEDTAVYYCAASYNVYYNNYYYPISRDEYDYWGQGTQVTVSS
notes: also called EGR PMP38G7
Turning to B8, the off-rate constant (koff) in the experiment with purified EGFR (Sigma) came to 0.00017 s⁻¹.
